# Source: the domain aggregation screens of Martell et al. (2025)
# Assay: soluble fraction after stress (log2 fold change); higher = more stays soluble; pooled small domains, quantitative proteomics
# Conditions: stress: 75 degC
# 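Further: 20 min heating vs room temperature control held 20 min.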
row,Sequence,soluble fraction (log2)
1,HMAVSGRMMVYEYIRQQMREGSLLPGSVLDLPAISHKLGISNTPLRDSLIRLEAEGYLTIYPRSKVVIN,-3.03
2,HMLMKKTITHEIELLEFLKQIFPQSSTNKLRKMLSNGRIKINSEIVHKAKYKLQENDTFELLDNPT,-2.61
3,HMLIADADSLRKQIETVLANAPNEVAAYRGGKETLMGWFVGQIMRATGGKADPKLTREILAELLQ,-0.00264
4,HMTQSPLHWSHRPIDLSELLTYLDRDGAFVYASGHKAPFTEVVRGFEHLLNIRLGDPRDVKRSVLQR,-0.109
5,HMLSADLLDKIQRIDSLEQQGKYAQAEKEARALLSDPSITPSERASVQNILSSIARKKAAQAQ,-0.064
6,HMYAVDTIHKGTITEMTDKGAVVSLGDNIDGFAPARQLVKEDGTTLKLGDTADFKVIEFSKATKRITLSH,0.58
7,HMNKNIKIPNISNLSREDAESVLKESGISVSTEIKEVESDTIEKGKVVKTEPSIGSTVKQGRTITIYISSG,0.161
8,HMENNNIAFSKFLEEVDSGRVVQVEIQGNNISGTLSDGSKFKTYSPNYPDLVSKLSEKNVSIIASPV,0.343
9,HMLNEWIDYIDEHIKEELTAKNLATVFGYSERHFRNVFQIYYDIKLNDYIRRRKLYFAAQELKKG,-1.27
10,HMESKITTAEAAAILNASPQFVRVAMQRGILNIGIAMQMPNSNKWTYNISPKLLGEYSGKNIEYELERLR,-1.65
11,HMNVDIVEITKNSSPNQISKVIDIGAIQIVEDLMSFGIMKAIDTPLEDSEIEQLLEKYNLIVDLIE,-2.01
12,HMQVTDADFDQIRLAVLSQLKQNSLTVAELLKIIPFKEQKVMPVIRFLIDNRVLEHGTDMKLTVGNSVK,-0.223
13,HMKDESQLVGAEGKAVTPLRPTGVALIGEKRLDVLTEGEFIPRNSDIIVSRVEGNKIIVKLKN,0.00394
14,HMQKTPFEIMTIYKDQILEMLGKDLTATEISIVLKKKGEKVHPREIRKFQLQHYEEVQDMRKKWRE,-1.17
15,HMPLKLIDVYLGRHGKKRYDVFKETGLSQQTLASANGKPAAALTGRILQAIGRTVGETPGRVLDEMLMIEQ,-1.02
16,HMDFNNQLKRIRESNGLTQEQLAKILNVSRQSISSWEVGRNFPDLEMIVIISKEFNISLDQLIMG,-3.02
17,HMKPDIETQLKKYRYKVSVSKKIKPYMVFSDKTLSELLTKSPTNLKELEDINGFGPVKVQEYGAAILEILK,-1.19
18,HMDELNFGNFEGTRIFVQRTARKKSIALSIRDGTIVILAPRHIPNQEIQELITTNTDWIRAKLSQHAETKR,-3.21
19,HMSIGLEDLIEQKGVADTDLRPSGWINVGNQRIFVVTEGSYIDQNDNVIILSVDGNRVVVRKI,-1.2
20,HMETFEKIKELAKKRGKALGQVEEDLGYGRNTLYKIKNSTPNAERIAEIANYFNVSTDYLLGRTDNPTIAK,0.108
21,HMHLEKGEVVVPDLKGLTMRQVGELLGKLNLRYSFSGTGLAVKQFPESGQIVNQGDIIEVIF,-0.56
22,HMDTFEITVEESDIDKRIDLFLAGNLESFSRSYIQDLIKKGKATISGKPVKANYRLREGDSVVLSIPKPK,-0.209
23,HMGIPVSIGQLDFNQARGNLALQVRASDFAALEQLRQRLGQTGESVQLGSASRDGDAVSARVVIGGQ,0.0963
24,HMNSSHRLIGLDPGLRVTGWGIVDAIGTKLVHVANGSVKSQQNAPLATRLLELENGLEEVFDNWQPDFA,0.034
25,HMNLLGERIREIRMEMGLTAKELAQRASVTPGYISQIEHDQIKPSMNVMMRIAEVLNVPMAALLM,-2.38
26,HMEPALYRLFMAHPELNASAVARRLGIAQSLLAQYISGSKKPSPERERMILTEIHKIGEELATAS,-0.938

row,Sequence,soluble fraction (log2)
1,HMADPVTPQDLIRWSEALAGIARTGLGFTQSLYEQERFEEVLAVAADMRVAAGSSYNPDDLVHEWMKSVG,-0.565
2,HMEPVQPVMYSEFIESVERGEVVEATIQGDKIIATDRSGNRYTVVGSAKDPQLVGQLLERNVAFKFVEE,0.118
3,HMDYENGTVKWFNTKKGYGFITRENGEDLFVHFRNIKGRGRRSLNDGEPVTFVVIEGDKGLQADQVSA,-0.34
4,HMAQILEPSVALKKLLELKQAGFEDETLVGWIRKVEFTRPLTPDDLLEWKGAGISQAVIRAAM,-0.302
5,HMHDNPLSAQEQRVLDLIAAGKTSKEIASQLFLSDGTVRNYTTSIFNKLNANNRVEAINIAQENGW,0.866
6,HMSDLGEIEKIVDEVLAENITKVQEYKDGKKGLMGMFMGQIMKKSGGKADPKIANQLLTEKL,0.11
7,HMEGMQATVTQITDEGITVRYVMNGQMVTRTLTSDEVAFVNRGQAVSDLAGAYRVGQTVWIY,-0.446
8,HMFSAASSQISSYVRSVVDKAQTYEQAYEILAKNPLGFKLDALEDELFRIIANAEILGADDDE,-0.976
9,HMATQMSSARRGIATDEMKQVAKDEDVTLDWLLPKIAIGSIIIPSNNVRPQKIHNVGIGKGMKTKVN,0.195
10,HMQTGRREALEAQLRETGGEAMLARLREIDPEAAARLHPADEKRVIRALEVYEETGKTITQHNLETKAVPP,0.309
11,HMSENPLTSREIEIVQLLANGKTTKSIAEELHLSNGTIRNYVSIVLDKLNVSNRIEAIRKALDKGWL,-1.81
12,HMSGRIWTDNYGRTIEADVIKVNINRTVLLEFTDKKTKTVSFDTFISKDIQYLEYLLTRRNRGKL,-3.98
13,HMYEIEDIKEKLLDLLANSKTGFSGLEISNRLGINRITVSKYLNIFSAEGLIKQKNIGNVIIWFVEDGIE,-0.509
14,HMDYDDLVPLDARGRLRLDGQDIILAFGRHRGRSIEEVHNHDKSYFDWLVSPAGGLEDEVIATLRERF,-0.613
15,HMADVPSTIFEAYRILGLNPEAPPVAVKKVVDALRMSWHPDHARSEPDRRHREERIKQINAAWDLLKGV,-0.183
16,HMQFEIGDTVRVHVNIREGERERVQMFEGTVIAKRGSGVSETFTVRRVSYGVGVERVFPVNSPNV,0.437
17,HMESYTGLAVTEDDDGWSNVRSGNSTSYSILFKIYAGEKFNILSNDGKWSYIDFNGRKGYIHNSIIRKY,-3.82
18,HMSTMVEIPNVVGMTIKEAKEALGNLGLSISKISGSNEDSAIVTEVSPAPGSSVKRDESITLVGQPK,0.683
19,HMALPHEIKQKWLEEIMTMLRSSDSVTINKVYLHFPENKSHWVDEILTDLSNTHMITRQHDFIRLKN,-0.964
20,HMKDHLRFEILSFAGDLRNGVVKTRQEFETIFAFYDKYEEIITALKVHNGYVDSEFDFIKEKFKELKSK,-2.78
21,HMSYANVEWRDFLNSLDEKYRIVVILYYVQGFKTREIAEILQINQSTVRGRLAKAREKLEQQYN,-1.4
22,HMSRSLEIDVLVKALLEQDRRKFMLVTDGTADVTVRYNNALPSLFREGQGVVAEGLMDNGKFIATNVLAK,-0.811
23,HMELAALKILNSPIGKIAIGTSENGLVKLDILTSGQTRAEFSDLPKAHKLALDAADQLAAYF,0.147
24,HMESYNIVEQVLTKKILSKGNTLAKLSNEFDGLVMLVIRGDEFIIPNGETLLFEKDILVINNGP,-2.68
25,HMKQFVVQYYGIDGEVINSVYKNGMSDLTSYEPEKIDGKNFKGWSLSEDSKKVIDENYRINSDVNLYAVYT,0.758
26,HMGNNTEITYSEFIRQAEAGNVQYVTVDGEKLLISATDGKSYYTINPRDDQMTDRLLNSGVEIRAEPQ,0.021

row,Sequence,soluble fraction (log2)
1,HMDLLIFSPSLGQHVRDLKRVIDRLHQHGIPVRWQKAKLLREEIEYIGWTWKSGGLIDPTNV,-0.672
2,HMESSREVSFSEFMKQIDSGRVSSVKLDGETIYVRNSDGTSYKVIQPLGTDLIGVLRKSDIDVQAIKQ,0.107
3,HMDLAENWKDDADITLAEYNAIRSRYKPGKLHRDTEFMIARDMLIRPETVLAIAHSRFSNVHTHPV,-0.787
4,HMEIHIGSLIKEKMEERGLSVSDFAHALHYERTNIYKIFKRSSIDVDLLLRISEVLAYDFLREVYL,-2.4
5,HMGVLGVDALAAAAEVSVDTVRYYQHLGLLEPPRREGRRAVYGPSHLARMGEIRRLAAAGFTLDQIRQLAE,-2.81
6,HMGEPVEIEEPITVRSLSEALGLKSSAIISHLMRQGVFATINQNLDKETAELIAAEYGIELRIK,-0.0834
7,HMRVVGRNHYDDADLAHIRSVIQLEARPLNVSRIARTLANEYPKHTYWSYLSFLQKNLRDRPDLF,-1.96
8,HMPDPLVEIRSAVHSNYAGMIAMLGADNRVYLGREEHYSYQDGQPGQYDNRDGSLLFVSDQPDIYYFL,-1.17
9,HMSSKYLKIYNDIVGKIDSGIFEANTKLPSESQLMDEYNVSRYTVRKSLNLLEQNGYIEKSKGKGSFVLDM,-1
10,HMKEILVGVEPLSKKQIIIKKGIKGRSDYIIFEKKNYGLPENLKPEEVSIEIALKIIDEKKKRKA,-1.48
11,HMGRQTITLPDFSGQDLEQVKARLTEWGLVPEEKSVFSDSVPLGSVVRTVPAEGDEVSVGDTVTVYKSLGR,0.19
12,HMETENLSPREREILEYIVKGYSYKMIAADLNIATETVRSHIKKIYKKLQVNSATEAVYKYSN,-1.51
13,HMEPLPDIPRGTRVSHQTAPADGDMPERRETGWTMTEPIRAQDGLAYVGVSVYGRGVVMLPVNSLSII,-0.384
14,HMRGVNEISYTTLISEVSGGNVRDVVISGDEITGTFNDGSRFHSFSPDDPQFIERLNDQGVIINVKPL,0.168
15,HMNTLLYAPKVSPNPFTPNADGINDVVNISYKLLRVISAVPISVEVFDLSGRLIKTLYSGVDPLGEY,0.194
16,HMLPKTVTLIDPVSGVAKTVTWVPALTLYSARRKAGLNRVPNTATIDRGGRELTGKRGSTLQPGDVVRW,-0.664
17,HMVQAQGARIREARVQRGLSQAQLGEPRYSGSYISHIENGRRSPGTDVLAFIAARLGLEPGALDS,-0.978
18,HMTYMWTTDGVNLRSEPNTDSAVVTVLGVGTQVRMIGEEDGWVKVSFNDQEGYIRADFLTTE,-0.198
19,HMLQLSDAISRVESFLQGQNRNLAFSIDENTERSVVTVLDSDTGDVIRQIPSEELLVLAKRIQELQQD,-0.0104
20,HMLTRQNFHGIKLPTIHEYIDLLNSRVNANIDKTNNWQSSVSHLRTYLNSHNINAVSKESINNYIDERLN,-1.4
21,HMVTTDPIADMLTRIRNASSQKHKSVDVPASKEKLAIAQILFEEGYIKSFEEIKEENNQGVIRITLKYTEK,-0.733
22,HMGQDTTIVVRRGESLLGIAARLLPATDFYTTGELAEGIRTASGMENDRLIPGQTLRVPLNSG,-0.24
23,HMRDSWNEATKEKRYTEAYDALNSALKKTPATPHALSDALWIARELGRTNEEVQRLEWRLYALLTWIS,0.241
24,HMASRKTERINRLIDVLQHATSRVPASVLSKILGIGERSVRNYVSEVNEQGQFRIDSSSGGYRLVA,-0.492
25,HMMTDAEKTFIFFSHLSSVEDHIAYGDKQFYMSLFWQHENKRELSSSQLYHLERLYNKYSMEEIEKKEEFS,-1.35
